The record followed here is article PMC4861984, “Deciphering a unique biotin scavenging pathway with redundant genes in the probiotic bacterium Lactococcus lactis” (Scientific Reports, 2016).

One series deals with T1, BirA_ec (Escherichia coli, UniProt P06709).
T1 construct: gene birA
The experiment in a line: TLC of biotinoyl-5'-AMP from [alpha-32P]ATP; MALDI-TOF of biotinylated AccB87. Particulars: 20 uM biotin, 5 uM ATP, 5 mM MgCl2, 100 mM KCl, pH 8, 37 °C; AccB87 acceptor. In kind it is biochemical.

The target of the next series is T2, BirA2_LL (Lactococcus lactis IL1403, UniProt Q9CED9 1-250).
T2 sequence: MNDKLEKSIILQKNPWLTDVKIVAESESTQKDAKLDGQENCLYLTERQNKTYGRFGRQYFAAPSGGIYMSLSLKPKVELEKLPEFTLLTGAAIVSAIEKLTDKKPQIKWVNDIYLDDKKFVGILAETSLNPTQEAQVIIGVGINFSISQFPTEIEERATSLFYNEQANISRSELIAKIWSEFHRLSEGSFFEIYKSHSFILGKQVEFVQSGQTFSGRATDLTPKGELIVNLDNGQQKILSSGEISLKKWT
As to the kind of experiment: EMSA; 100 uM biotin + 100 uM ATP; 3-12 pmol protein; Roche binding buffer (composition, pH, temperature not stated), 0.2 pmol DIG probe in 15 ul, 100 uM biotin + 100 uM ATP, ~1 h; native PAGE 7% (Methods) or 7.5%. Particulars: protein: recombinant; tags: His6 (pET28a); chain copies: 2; label: digoxigenin; blunt.

For a further series, the target named is T3, BirA1_LL (Lactococcus lactis IL1403, UniProt Q9CEQ6 1-323).
T3 sequence: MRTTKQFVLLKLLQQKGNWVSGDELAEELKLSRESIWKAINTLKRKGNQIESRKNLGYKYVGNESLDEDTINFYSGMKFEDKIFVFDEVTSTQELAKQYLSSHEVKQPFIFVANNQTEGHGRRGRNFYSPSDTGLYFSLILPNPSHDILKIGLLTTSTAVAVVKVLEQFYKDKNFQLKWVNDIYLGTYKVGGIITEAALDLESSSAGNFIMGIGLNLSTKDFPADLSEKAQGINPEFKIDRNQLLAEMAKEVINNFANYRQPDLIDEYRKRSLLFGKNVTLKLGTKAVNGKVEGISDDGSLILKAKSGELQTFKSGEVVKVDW
As to the kind of experiment: EMSA; 100 uM biotin + 100 uM ATP (forms biotinoyl-AMP); 3-12 pmol protein; Roche binding buffer (composition, pH, temperature not stated), 0.2 pmol DIG probe in 15 ul, 100 uM biotin + 100 uM ATP, ~1 h; native PAGE 7% (Methods) or 7.5%. To be noted: protein: recombinant; tags: His6 (pET28a); chain copies: 2; label: digoxigenin; blunt. (In general: Mobility shift assays separate free from complexed probe on a gel.)

T1 sequence (P06709 whole entry): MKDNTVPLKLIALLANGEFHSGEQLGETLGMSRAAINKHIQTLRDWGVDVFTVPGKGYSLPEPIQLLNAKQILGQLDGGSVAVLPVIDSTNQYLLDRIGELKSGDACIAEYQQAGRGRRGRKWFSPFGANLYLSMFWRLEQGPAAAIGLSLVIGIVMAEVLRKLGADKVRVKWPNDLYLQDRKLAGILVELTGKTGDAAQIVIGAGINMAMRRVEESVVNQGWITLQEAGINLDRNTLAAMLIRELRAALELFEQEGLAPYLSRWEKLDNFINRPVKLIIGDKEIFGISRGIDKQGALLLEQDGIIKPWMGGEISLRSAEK

For `O=C(O)CCCC[C@@H]1SC[C@@H]2NC(=O)N[C@@H]21` [biotin], the “TLC of biotinoyl-5'-AMP from [alpha-32P]ATP; MALDI-TOF of biotinylated AccB87” value on BirA_ec is recorded as “The formation of the biotinylated AccB87 by E. coli BirA”.

B1: bioY_LL (bioY1 promoter probe) (dsDNA)
DNA 1: CAAATAATAAAATTAACAGTTAACCTAAATTTGATTTTAGGGTTACTGTTTGATATG
DNA 2: CATATCAAACAGTAACCCTAAAATCAAATTTAGGTTAACTGTTAATTTTATTATTTG
Turning to B1, the binding result with BirA2_LL is reported as “no binding”; with BirA1_LL, “binds”.
